Measured values: publication PMC3463608

Molecular target: His-tagged exomer complex (S. cerevisiae) (UniProt Q12114)
Assay: pull-down; His-exomer complex immobilized on Ni-NTA beads, incubated with 150 ug/ml purified GST-Chs3 fragments at RT for 30 min; washes with B88G + 1% Tween 20 and B88G; SDS-PAGE and Coomassie staining; bound fragment quantified, normalized to Chs5p in the lane and to the wt pull-down; two independent experiments

B1: GST-Chs3 (1–170) D19AE21A (domain or fragment)
chain: MTGLNGDDPDDYYLNLNQAEASLLRSRHSVGSGAPHRQGSLVRPERSRLNNPDNPHFYYAQKTQEQMNHLDVLPSSTGVNPNATRRSGSLRSKGSVRSKFSGRETDSYLLQDMNTTDKKASVKISDEGVAEDEFDKDGDVDNFEESSTQPINKSIKPLRKETNDTLSFWQ
level of binding, % of wt: 62 to 63 % of wt
